Experiment [1] has as its target C5a (Homo sapiens (Human)) (UniProt P01031). The experiment is described as follows: cell-based or functional assay.
In experiment [2] the target is C3a (Homo sapiens (Human)) (UniProt P01024). Nature of the experiment: cell-based or functional assay.
Sequence of C3a (Homo sapiens (Human)) (P01024 672-748 limits assumed): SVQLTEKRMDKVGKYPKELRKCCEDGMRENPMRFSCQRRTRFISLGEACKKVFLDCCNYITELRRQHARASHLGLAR

Sequence of C5a (Homo sapiens (Human)) (P01031 678-751 limits assumed): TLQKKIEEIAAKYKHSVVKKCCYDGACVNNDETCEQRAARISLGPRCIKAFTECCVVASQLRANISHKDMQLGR

Regarding “TAFI activation peptide-CPN1-HSA (enzyme)”, the results for the % Arg released (Arg LC-MS/MS, supernatant) in experiment [1] and in experiment [2] were 14% and 72%, respectively.

The values above are taken from patent US20250277200A1.
